In patent publication US20260097101:

Columns and labels:
[1] = molecular target: Native pancreatic polypeptide (PP)
[2] = molecular target: [P^3]PP

B1: purified porcine DPP-4 (dipeptidyl peptidase-4) (protein)
chain: DSRRTYTLTDYLKSTFRVKFYTLQWISDHEYLYKQENNILLFNAEYGNSSIFLENSTFDELGYSTNDYSVSPDRQFILFEYNYVKQWRHSYTASYDIYDLNKRQLITEERIPNNTQWITWSPVGHKLAYVWNNDIYVKNEPNLSSQRITWTGKENVIYNGVTDWVYEEEVFSAYSALWWSPNGTFLAYAQFNDTEVPLIEYSFYSDESLQYPKTVRIPYPKAGAENPTVKFFVVDTRTLSPNASVTSYQIVPPASVLIGDHYLCGVTWVTEERISLQWIRRAQNYSIIDICDYDESTGRWISSVARQHIEISTTGWVGRFRPAEPHFTSDGNSFYKIISNEEGYKHICHFQTDKSNCTFITKGAWEVIGIEALTSDYLYYISNEHKGMPGGRNLYRIQLNDYTKVTCLSCELNPERCQYYSASFSNKAKYYQLRCFGPGLPLYTLHSSSSDKELRVLEDNSALDKMLQDVQMPSKKLDVINLHGTKFWYQMILPPHFDKSKKYPLLIEVYAGPCSQKVDTVFRLSWATYLASTENIIVASFDGRGSGYQGDKIMHAINRRLGTFEVEDQIEATRQFSKMGFVDDKRIAIWGWSYGGYVTSMVLGAGSGVFKCGIAVAPVSKWEYYDSVYTERYMGLPTPEDNLDYYRNSTVMSRAENFKQVEYLLIHGTADDNVHFQQSAQLSKALVDAGVDFQTMWYTDEDHGIASNMAHQHIYTHMSHFLKQCFSLP
For B1, the “DPP-4 stability (degradation by purified DPP-4, 5 mU, 0-8 h; RP-HPLC and MALDI-ToF)” value [1] was less than 2 h and the “DPP-4 stability (degradation by purified DPP-4, 5 mU, 0-8 h; RP-HPLC and MALDI-ToF)” value [2] was greater than 8 h.
